Data taken from patent US20090232730A1, “METHOD OF PRODUCING IMMUNOLIPOSOMES AND COMPOSITIONS THEREOF” (IMMUNE DISEASE INSTITUTE, INC., priority 2006, published 2009).
Each block holds one compound with its values, some of them ahead of it. {P} = phosphate

What was measured:
[1] = target: integrin Mac-1 (αMβ2) (human) (UniProt P11215); test: flow cytometry on K562 cells expressing Mac-1; free antibody before lyophilization
[2] = target: integrin Mac-1 (αMβ2) (human) (UniProt P11215); test: flow cytometry on K562 cells expressing Mac-1; free antibody after lyophilization and reconstitution
K562 mock cells = test: MTT cytotoxicity assay; assay type: cell-based, human; conditions: MMC formulations
Procedure: K562 cells (either K562 mock cells or K562 Mac-1 cells, stably transfected with Mac-1 integrin) were grown in 1×RPMI supplemented with 10% FBS. Exponentially growing cells were seeded at 2.5×10^5/ml in 24-well plates and either left untreated or treated with graded dosages of free mitomycin (MMC) or equivalent doses of MMC formulated in liposomes. The treatment media was selected from the following MMC formulations: (i) the test system, MMC-loaded tHA-CBRM1/29, (ii) MMC-loaded ULV-HA, (iii) free MMC, (iv) free MMC dissolved in a suspension of empty tHA-CBRM1/29 and (v) free MMC dissolved in a suspension of empty ULV-HA. In addition, there were 3 drug-free controls, consisting of: (vi) no addition (i.e., only the serum-supplemented growth medium), (vii) empty tHA-CBRM1/29 and (viii) empty ULV. In all formulations, the solvent was serum-supplemented cell growth medium. Cells were washed twice with Hepes-buffered saline (HBS) then re-incubated with drug-free media for additional 48 hours. Cells were spun down and re-suspended in 0.5 ml of MTT containing medium (0.5 mg/ml), and incubated at 37° C. for 1 h. […] After 5 min at room temperature, samples were spun down and 250-μl aliquots were used for absorbance measurements. Cell viability was measured as the difference in the absorbance 550 and 620 nm. […] Data are expressed as a percent of the control healthy growing cells.

[3] = target: integrin Mac-1 (αMβ2) (human) (UniProt P11215); test: flow cytometry on K562 cells expressing Mac-1; carrier after lyophilization and reconstitution
[4] = target: integrin Mac-1 (αMβ2) (human) (UniProt P11215); test: flow cytometry on K562 cells expressing Mac-1; carrier before lyophilization
[5] = target: integrin Mac-1 (αMβ2) (human) (UniProt P11215); test: cell-based or functional assay
[6] = target: integrin Mac-1 (αMβ2) (human) (UniProt P11215); test: flow cytometry on K562 cells expressing Mac-1; carrier after lyophilization and reconstitution (no cryoprotectant)
CD4 = CD4 silencing in human primary CD4+ cells by flow cytometry; assay type: cell-based; conditions: formulated in immunomicelles, 30 pmol-1000 pmol
Procedure: Human neutrophils or lymphocytes were isolated from freshly drawn blood as described (Carman et al. J. Immunology, 171 (2003) 6135-6144). CD4 blasts were generated by isolating CD4+ T cells from peripheral blood lymphocytes of normal donors by immunomagnetic beads (Miltenyi Biotech) as previously reported (Novina et al. Nature Med. 2002; 8(7): 681-6) and culturing them in RPMI 1640 containing 10% FCS for 3 days in the presence of 4 μg/mL phytohemagglutinin (PHA), then expend the cells with the same media (without PHA) but with IL-2 at 10 ng/mL for 3 more days.
siRNA transfections were preformed with different formulations of siRNA targeted against human CD4, siRNA-luciferase, or siRNA-cy3. As a positive control we used Fugene 6 and ExGen 500 (PEI) transfection reagents. Cells were seeded in 24 or 96 well plates at a density of 5000−2×10^5 cells/well. […]

- MFI [3]: 172
- MFI [4]: 161
Compound: tHA-CBRM1/29-cy3 (antibody)
- IC50 (MTT cytotoxicity assay, MMC entrapped in the carrier, K562 cells expressing Mac-1) [5]: 1750 nM
- fold difference of IC50 against ULV-HA (no antibody), MTT cytotoxicity assay on K562 cells expressing Mac-1 [5]: 100 fold

- mean fluorescence intensity [4]: 175
- mean fluorescence intensity [6]: 5.6
Compound: ULV-CBRM1/29-cy3 (antibody)

Continued, compound first:

Compound: CBRM1/29-cy3 (antibody)
- MFI [1]: 82
- MFI [2]: 73

Compound: CO[C@@]12[C@H](COC(N)=O)C3=C(C(=O)C(C)=C(N)C3=O)N1C[C@@H]1N[C@@H]12 [free MMC, mitomycin C]
- cell survival (K562 mock cells): no significant changes in the cell survival

Compound: CD4-siRNA: siRNA targeted against human CD4, sense 5′-P.GAUCAAGAGACUCCUCAGUUU-3′, antisense 5′-P.ACUGAGGAGUCUCUUGAUCUU-3′ (RNA, 5' {P}, backbone not given here)
- plateau of CD4 silencing dose response curve (CD4): 500 pmol
